Assay results from patent publication US20250257126A1 (CAMBRIDGE ENTERPRISE, published 2025).

B1: hybridoma clone 12 (antibody, V domains shown)
VH: EVQLQQSGPELVKPGASVKISCKASGYTFTDYYMNWVKQSHGKSLEWIGDINPNNGGTIYNQKFKGKATLTVDKSSSTAYMELRSLTSEDSAVYYCASGYLFDYWGPGTTLTVSS
VL: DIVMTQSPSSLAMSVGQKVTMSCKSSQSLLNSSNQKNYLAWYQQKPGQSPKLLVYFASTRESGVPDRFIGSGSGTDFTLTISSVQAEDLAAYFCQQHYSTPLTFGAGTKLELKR
notes: Murine antibody; also called antibody 12
B2: α-LGR5 clone 3 (antibody, mouse IgG1, kappa, V domains shown)
VH: QVQLQQPGAELVKPGASVKLSCKASGYTFTSYWMQWVKQRPGQGLEWIGEIDPSDSYSNYNQKFKGKATLTVDTSSSTAYMQLSSLTSEDSAVYYCARSLSGYVDYWGQGTTLTVSS
VL: DIQMTQTTSSLSASLGDRVTISCRASQDISNRLNWYQQKPDGTVKLLISYRSRLQSGVPSRFSGSGSGTDYSLTISNLEEEDIATYFCQQGNTLPPTFGGGTKLEVRR
notes: Murine monoclonal antibody from hybridoma; also called hybridoma clone 3; antibody 3

Tests used:
[1] = target: T1, murine LGR5 transgene (mouse, UniProt Q9Z1P4 22-907); test: western blot of lysates of HEK293T cells expressing the LGR transgenes
T1 construct: whole, on cells; Overexpressed in HEK293T cells with N-terminal HA tag, V2 receptor tail and eGFP; also tested as lysate; also called mLGR5; mLGR5-eGFP
T1 sequence (looked up): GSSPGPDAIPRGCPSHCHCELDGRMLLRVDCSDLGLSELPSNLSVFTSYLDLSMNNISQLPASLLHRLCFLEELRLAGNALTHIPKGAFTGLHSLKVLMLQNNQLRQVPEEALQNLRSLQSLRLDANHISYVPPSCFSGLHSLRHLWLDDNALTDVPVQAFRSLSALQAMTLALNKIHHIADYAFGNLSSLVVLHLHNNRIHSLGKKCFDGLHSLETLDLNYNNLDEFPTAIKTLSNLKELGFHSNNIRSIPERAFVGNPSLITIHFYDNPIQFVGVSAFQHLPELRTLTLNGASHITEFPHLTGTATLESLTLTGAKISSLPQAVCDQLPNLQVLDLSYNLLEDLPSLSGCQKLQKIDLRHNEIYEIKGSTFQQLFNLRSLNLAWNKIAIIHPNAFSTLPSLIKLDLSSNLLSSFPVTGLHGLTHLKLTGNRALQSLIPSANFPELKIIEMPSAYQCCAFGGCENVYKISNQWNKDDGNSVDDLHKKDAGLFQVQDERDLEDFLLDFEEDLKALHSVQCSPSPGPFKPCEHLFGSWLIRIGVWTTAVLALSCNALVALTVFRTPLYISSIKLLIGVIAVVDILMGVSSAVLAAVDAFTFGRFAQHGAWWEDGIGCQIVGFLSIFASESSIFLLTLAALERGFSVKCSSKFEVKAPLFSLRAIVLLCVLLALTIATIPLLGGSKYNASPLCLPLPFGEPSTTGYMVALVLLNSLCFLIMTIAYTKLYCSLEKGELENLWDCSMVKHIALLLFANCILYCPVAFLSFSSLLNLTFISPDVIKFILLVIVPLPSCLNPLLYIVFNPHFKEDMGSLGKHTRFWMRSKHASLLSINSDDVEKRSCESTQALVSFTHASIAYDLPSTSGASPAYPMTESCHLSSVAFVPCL

[2] = target: T2, human LGR5-eGFP transgene (human, UniProt O75473 22-907); test: western blot of lysates of HEK293T cells expressing mLGR5, hLGR5 or cynoLGR5 transgenes, probed with hybridoma clone 3
T2 construct: Tested on live or fixed cells and as cell lysates on western blots; also called hLGR5-eGFP; LGR5-GFP
T2 sequence: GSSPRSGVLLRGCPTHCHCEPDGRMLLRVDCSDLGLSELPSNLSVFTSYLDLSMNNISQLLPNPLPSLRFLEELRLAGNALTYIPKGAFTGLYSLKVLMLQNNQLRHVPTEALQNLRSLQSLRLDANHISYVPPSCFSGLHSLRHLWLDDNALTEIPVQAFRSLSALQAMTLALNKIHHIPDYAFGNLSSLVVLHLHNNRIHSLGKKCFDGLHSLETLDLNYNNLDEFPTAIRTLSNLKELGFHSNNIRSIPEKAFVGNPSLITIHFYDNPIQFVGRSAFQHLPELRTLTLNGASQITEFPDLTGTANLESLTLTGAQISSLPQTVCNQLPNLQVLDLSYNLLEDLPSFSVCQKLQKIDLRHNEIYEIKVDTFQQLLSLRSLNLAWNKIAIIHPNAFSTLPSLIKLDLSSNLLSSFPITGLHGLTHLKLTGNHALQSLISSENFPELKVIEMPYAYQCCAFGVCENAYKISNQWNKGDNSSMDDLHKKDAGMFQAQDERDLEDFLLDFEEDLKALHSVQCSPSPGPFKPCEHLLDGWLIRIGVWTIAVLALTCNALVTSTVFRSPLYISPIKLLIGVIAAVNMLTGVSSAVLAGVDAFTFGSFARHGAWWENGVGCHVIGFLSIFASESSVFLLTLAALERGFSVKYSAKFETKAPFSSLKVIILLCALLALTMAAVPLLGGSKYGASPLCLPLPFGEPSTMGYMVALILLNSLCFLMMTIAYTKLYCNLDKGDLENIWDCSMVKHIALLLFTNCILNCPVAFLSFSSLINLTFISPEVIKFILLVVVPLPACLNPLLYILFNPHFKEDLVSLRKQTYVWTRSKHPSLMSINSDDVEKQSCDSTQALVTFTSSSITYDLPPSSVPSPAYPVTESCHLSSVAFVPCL

[3] = target: T1, murine LGR5 transgene; test: as above

| binding result [1] | binding result [2] | binding result [3] | Binder |
| --- | --- | --- | --- |
| no binding | – | – | B1 |
| – | binds | no binding | B2 |
